Experiments:
Colo205 tumors = experiment: Colon cancer xenograft model; assay type: in vivo, female nude mice; details: 0.2 ml of 4 mg/ml every other day, Colo205 xenografts
Description: High levels of Notch are expressed in colon cancer cells. ANTP/DN-MAML was administered to female nude mice bearing xenografted Colo205 tumors. Injections of 0.2 ml of 4 mg/ml ANTP/DN-MAML protein were administered to the mice every other day. This dose is equivalent to 2 g of ANTP/DN-MAML fusion protein per patient.

Notch (NICD) = experiment: Notch inhibition, Western blot of activated Notch (NICD); assay type: cell-based, human; details: MDA-MB231 cells treated for two hours
Description: To investigate the potential role of ANTP/DN-MAML to inhibit Notch signaling activation the high metastatic mammary epithelial cell line MDA-MB231 cell line was treated with the ANTP/DN-MAML fusion protein for two hours. Total protein was extracted from cells using SDS buffer. Total protein concentrations were determined using the BCA protein assay kit. Total protein ([…]) was diluted in 5× sample buffer ([…] Tris-HCl pH 6.8, 500 mM dithiotheitol, 10% SDS, 0.5% bromophenol blue, 50% glycerol), heated at 100° C. and analyzed by SDS-PAGE. Electrophoresis was carried out in running buffer (25 mM Tris HCl, 250 mM glycine, 0.1% SDS) for 60 minutes or until the bromophenol blue had run out of the gel. Separated proteins were transferred to nitrocellulose membrane in ice cold transfer buffer (39 mM glycine, 48 mM Tris HCl) electrophoretically for 90 minutes at 100V. Western blots were probed with the […] in blocking buffer at 4° C. over night with anti-Mouse IgG peroxidase produced in goat […] (Sigma A9917). Nitrocellulose membranes were washed 4 times for five minutes each in TBS-T buffer. […]

[1] = In vivo maximum tolerated dose study; design: species or system mice
Description: ANTP/DN-MAML tail vein administration was started when the mice reached an age of 12 weeks. Mice were continuously monitored for signs of hypoglycemic shock or drug side effects and were sacrificed if body weight loss exceeded 15%. Various dosages were tested starting at 4 mg/kg/day. […] This experiment was terminated by sacrificing the animals three days after injection.

[2] = system: MDA MB231 xenograft tumor; experiment: Penetration into outer, middle and inner core of xenografted mammary tumors (Western blot, immunohistochemistry); assay type: in vivo, CD1 Nude mice; details: tail vein injection
Description: Purified ANTP/DN-MAML fusion protein was injected into CD1 Nude mice xenografted with MDA MB231 human mammary epithelial breast cancer cells via the tail vein. The mice were perfused for 5 min with phosphate-buffered saline and sacrificed 2 hours following the injection. The tumor was removed and dissected under a stereoscope to separate the outer, middle, and inner core of the tumor. The ANTP/DN-MAML in each core of the tumor was determined by Western blot.
In order to establish the localization of ANTP/DN-MAML within the tumors, immunohistochemistry on the above mammary cancer samples was performed.

MDA-MB231 cells = experiment: Cellular localization by immunostaining (nuclear transduction); assay type: cell-based, human; details: 50 μM, two hours, serum free media, anti-His immunostaining
Description: To determine the cellular localization of the ANTP/DN-MAML (TR4) fusion protein, immunostaining on human mammary epithelial breast cancer MDA-MB231 cells was carried out. MDA-MB231 cells were cultured to sub-confluence in Dulbecco's modified Eagle's medium containing 10% calf serum at 37° C. The coverslips with cells attached were washed, and incubated with ANTP/DN-MAML purified fusion protein in serum free media for two hours at a concentration of 50 μM. Cells were washed three times and fixed with 4% paraformaldehyde for 15 minutes. After brief washes, the coverslips were incubated with blocking solution and subsequently with anti-His primary and FITC-conjugated secondary antibody.

Breast cancer xenografts = experiment: In vivo tumor reduction in breast cancer xenografts; design: species or system mice; details: 4 mg/kg every two days, n=6 per group, vs PBS control
Description: Breast cancer xenografts were established in mice. The mice were divided into two groups, and injected every two days with either PBS as a control, or with 4 mg/kg ANTP/DN-MAML fusion protein (n=6 per group) (FIG. 4A). Control mice treated with PBS developed rapidly growing tumors. The control mice were euthanized after twenty days. […] (FIG. 4B).

[3] = Biodistribution by Western blot of organs after intravenous injection; assay type: in vivo, CD1 nude mice; details: 4 mg/kg intravenously via tail vein, 2 hours after injection
Description: To determine whether Antennapedia could be used to deliver the DN-MAML in vivo, CD1 nude mice were injected intravenously via tail vein with 4 mg/kg of the ANTP/DN-MAML fusion protein. The mice were perfused for 5 min with phosphate-buffered saline and sacrificed 2 hours following the injection. The expression of ANTP/DN-MAML in each organ was determined by Western blot analysis. […] As such, the targeted delivery system of the present invention may have wide applications in the administration of therapeutic proteins to the central nervous system.

[4] = Immunogenicity in immuno-competent mice by ELISA; assay type: in vivo; details: intravenous 0.2 ml, 2.5 mg/ml without adjuvant, once per day for 5 days; 2.5 mg per week; monitored over 4 months
Description: The immunogenicity of ANTP/DN-MAML was investigated in immuno-competent mice. Animals were immunized intravenously with ANTP/DN-MAML (0.2 ml, 2.5 mg/ml) without adjuvant, once per day for 5 days. Mice were bled once per week over a 4-month period, and the immune response monitored by ELISA. Blood samples were diluted 1:10, 1:100 and 1:1000 in PBS, and the immune response was monitored by ELISA on native ANTP/DN-MAML (coated at 50 μg/ml) and detected using anti-mouse antibodies. […] This dose is equivalent to 100 mg/kg in humans.

Row | Substance | colon cancer cell growth in vivo (Colo205 tumors) | downregulation of Notch activation (NICD) (Notch (NICD)) | side effects at the maximum tolerated dose ([1]; 57 mg/kg/day, tail vein) | maximum tolerated dose ([1]; tail vein administration, mice aged 12 weeks) | detection in outer, middle and inner core of the tumor ([2]; 2 hours, Western blot, vs PBS control) | localization within the tumors (immunohistochemistry) ([2]; MDA MB231 xenograft) | cellular localization (MDA-MB231 cells) | tumor volume (Breast cancer xenografts) | detection in brain (blood-brain barrier crossing) [3] | signal in liver, kidney, heart, lung, spleen and brain tissue vs PBS injected mice ([3]; Western blot) | immune response (ELISA) [4]
1 | ANTP/DN-MAML: 14.18 KDa fusion protein of antennapedia homeodomain, 62 amino acid DN/MAML sequence and pentahistidine tag (SEQ ID NO.:2) | reduced colon cancer cell growth in vivo | Downregulation of Notch activation occurred | loss of appetite, weight loss and hypoglycemia | 57 mg/kg/day | detected in the outer, middle and inner core of the tumor | Intense ANTP/DN-MAML staining within the nucleus of mammary cancer cells | nuclear localization | no increase in tumor volume after thirty-two days | detected in the brains | significant signal | does not raise an immune response
2 | ANTP: Trojan peptide; 60 amino acid Drosophila antennapedia homeodomain (SEQ ID NO.:4), used alone as control [reference compound] |  | not in cells treated with ANTP alone |  |  |  |  |  |  |  |  | 

— patent publication US8748112B2, “Methods of determining cancer cell responsiveness to a notch inhibitory agent” (Trojan Technologies, Ltd., priority 2007, dated 2014)
